One data set concerns CloudmanS91 tumors. Nature of the data set: CloudmanS91 melanoma mouse model, combination with anti-PD-1. The class given is in vivo. The note with it: 10 mg/kg and 30 mg/kg i.p. weekly, in combination with anti-PD1. As to the method:
Clone M3 [Cloudman S91 melanoma] (ATCC® CCL-53.1™) cells were obtained from the American Type Culture Collection (ATCC), and were maintained at CR Discovery Services as exponentially growing suspension cultures in Kaighn's modified Ham's F12 Medium supplemented with 2.5% fetal bovine serum, 15% horse serum, 2 mM glutamine, 100 units/mL penicillin G sodium, 100 μg/mL streptomycin sulfate and 25 μg/mL gentamicin. The tumor cells were grown in tissue culture flasks in a humidified incubator at 37° C., in an atmosphere of 5% CO2 and 95% air.
An untreated control was used, data not shown.

In a further data set the test system is Cell-associated proTGFβ1. Description: MSD-SET binding, cell average of hGARP and hLRRC33 complexes. The arrangement: species or system human. The settings on record: average KD of (E) and (F), read-out: (G) Cell AVRG. From the text: Column (A) of the table provides monoclonal antibodies with discrete amino acid sequences. […] Columns (B), (C), (E) and (F) provide affinities of each of the listed antibodies, measured in KD, towards the antigen complex as indicated, respectively. […] Similarly, Average KD values calculated from (E) and (F) are shown in the corresponding column (G), which collectively represents affinities of the antibodies to cell-surface or cell-associated proTGF complexes. Finally, relative ratios between the average KD values from columns (D) and (G) are expressed as fold bias” in column (H). Thus, the greater the numerical of column (H) is, the greater bias exists for the particular antibody, when comparing binding preferences of the antibody for matrix-associated complexes to cell-surface complexes. This is one way of quantitatively representing and comparing inherent bias of antibodies to their target complexes. Such analyses may be useful in guiding the selection process for a candidate antibody for particular therapeutic use. Select antibodies of the present disclosure, as measured by MSD-SET, show context-bias (i.e., greater than five-fold bias) or unbias (i.e., less than 5-fold bias) toward matrix-associated complexes over cell-associated complexes. […] Without being bound by a particular theory, the differences in the kinetics of the assays and/or differences in the nature of recombinant proteins may account for the noticeable differences seen in Ab19 binding to hGARP complexes observed in the above Octet assay (see Table 6) compared to the below MSD-SET assay (see Table 7 below). For example, the Octet assay measures kinetic on and off rates, while the MSD-SET assay measures binding at equilibrium. In addition, the recombinant antibodies used in the Octet assay were expressed as IgG1 antibodies in yeast, while the antibodies used in the MSD assay were expressed as IgG4 antibodies in mammalian cells.

For data set [1], the system named is liver fibrosis (liver hydroxyproline). Description: CCl4 model of liver fibrosis. The note with it: CCl4 mice, 4 weeks. The class given is in vivo, mouse. As to the method:
Carbon tetrachloride (CCl4) treatment of mice is a well-characterized model of liver fibrosis. In this model, Balb/C mice were dosed intraperitoneally (i.p.) twice weekly with 2.5 μl of a 20% CCl4 solution in corn oil per gram bodyweight. This CCl4 dosing was maintained throughout the duration of the study(6 weeks). After two weeks of CCl4 dosing, dosing with test articles started. […] After 6 weeks of CCl4 dosing (4 weeks of antibody treatment), mice were sacrificed and liver tissue was collected.
The hydroxyproline assay (see description above) was used to measure fibrosis in liver lysates from this study. […] The treatment effect of both TGFβ1-specific antibodies was similar to that of the pan-TGFβ inhibitor 1D11.

Data set [2] in a line: Effective dose and therapeutic window across preclinical models (summary). The class given is in vivo.
Source text: Effective amount: An “effective amount” (or therapeutically effective amount, or therapeutic dose) is a dosage, concentration, or dosing regimen that achieves statistically significant clinical benefits (e.g., efficacy) in a patient population.
Therapeutic window: The term “therapeutic window” refers to a range of doses/concentrations that produces therapeutic response without causing significant/observable/unacceptable adverse effect (e.g., within adverse effects that are acceptable or tolerable) in subjects. Therapeutic window may be calculated as a ratio between minimum effective concentrations (MEC) to the minimum toxic concentrations (MTC).
Data set [3] in a line: 4-week rat toxicology study (weekly dosing). Type of data set: in vivo. From the text:
Animals were sacrificed and necropsies performed.

For data set [4], the target named is Matrix-associated proTGFβ1. Nature of the data set: Octet binding, ECM average of hLTBP1 and hLTBP3 complexes. The arrangement: species or system human. The settings on record: average KD of (B) and (C), read-out: (D) ECM AVRG. From the text:
Column (A) of the table provides monoclonal antibodies with discrete amino acid sequences. […] Columns (B), (C), (E) and (F) provide affinities of each of the listed antibodies, measured in KD, towards the antigen complex as indicated, respectively. […] Average KD values calculated from (B) and (C) are shown in the corresponding column (D), which collectively represents affinities of the antibodies to ECM- or matrix-associated proTGFβ1 complexes. Similarly, Average KD values calculated from (E) and (F) are shown in the corresponding column (G), which collectively represents affinities of the antibodies to cell-surface or cell-associated proTGF complexes. Finally, relative ratios between the average KD values from columns (D) and (G) are expressed as fold bias” in column (H). Thus, the greater the numerical of column (H) is, the greater bias exists for the particular antibody, when comparing binding preferences of the antibody for matrix-associated complexes to cell-surface complexes. This is one way of quantitatively representing and comparing inherent bias of antibodies to their target complexes. Such analyses may be useful in guiding the selection process for a candidate antibody for particular therapeutic use.
For orientation: Biolayer interferometry detects binding as a change in optical thickness at a sensor tip.

One may read the NOAEL as the highest tested level that showed no adverse finding.

Entries after “also recorded” stand apart in the source; their conditions may differ.

B1: Ab2: isoform-selective inhibitor of TGFβ1 activation; VH SEQ ID NO: 13, VL SEQ ID NO: 15; human IgG4 (antibody, V domains shown)
VH: EVQLLESGGGLVQPGGSLRLSCAASGFTFADYAMTWVRQAPGKGLEWVSAISGSGAATYFADSVKGRFTISRDNSKNTLYLQMNSLRAEDTAVYYCARVSSGHWDFDYWGQGTLVTVSS
VL: DIQLTQSPSSLSASVGDRVTITCRASQSISSYLNWYQQKPGKAPKLLIYAASNLQSGVPSRFSGSGSGTDFTLTISSLQPEDFATYYCQQTYTVPLTFGGGTKVEIK
modifications: human IgG4 constant regions
B1: the “Tumor growth (median tumor progression)” value in the data set with CloudmanS91 tumors is recorded as “delayed tumor growth”. Besides, the Kd in the data set with Cell-associated proTGFβ1 is 2.3 nM; in data set [4], 0.157 nM. Besides, the Liver hydroxyproline entry is reported as “statistically significant reduction in liver hydroxyproline” in data set [1] (high dose 15 mg/kg i.p. twice weekly) and “trend towards reduced liver hydroxyproline, but these differences are not statistically significant” in data set [1] (lower doses 5 or 1.5 mg/kg i.p. twice weekly). In data set [2], this molecule showed an Effective amount of 3 to 30 mg/kg. Also, in data set [3] (once weekly for 4 weeks up to 100 mg/kg, Fischer 344 or SD rats), the Test article-related toxicity entry is on record as “free of observable toxicities associated with pan-inhibition of TGFβ; also recorded: no observable test article-related toxcity in either rat strain; also recorded: no toxic effects over background”. In data set [3] (rats, suggested from NOAEL of four-week toxicology study), this molecule displayed an MTD of more than 100 mg/kg. Further, the NOAEL in data set [3] (rats, weekly dose for 4 weeks, highest dose tested) is recorded as 100 mg/kg.

Source of the values: patent publication US20210340238A1, “TGFß1 INHIBITORS AND USE THEREOF” (Scholar Rock, Inc., priority 2018, published 2021).
